These results are taken from paper PMC10392684, “Amyloid-like Hfq interaction with single-stranded DNA: involvement in recombination and replication in Escherichia coli”.

In one data set the target is Hfq (Escherichia coli, UniProt P0A6X3 1-102). Description: fluorescence anisotropy; Anisotropy: buffer not given in material (as Geinguenaud 2011); pH ~5 stated for DNA complex formation; microscopy: Hfq stock in 50 mM Tris-HCl pH 7.5, 50 mM NH4Cl, 10% glycerol, 1 mM EDTA, exchanged to TE (10 mM Tris-HCl pH 8, 1 mM EDTA); TEM: 10 mM Tris-HCl, 1 mM EDTA, room temperature, 10 min. Particulars: protein: recombinant; chain copies: 6; label: 5'-fluorescein. (In general: Fluorescence polarisation rises when a labelled molecule tumbles more slowly, as on binding a larger partner.)

The target in a further data set is T1, Hfq-CTR peptide (Escherichia coli, UniProt P0A6X3 64-102).
T1 chain: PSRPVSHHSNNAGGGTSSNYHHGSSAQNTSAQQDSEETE
Description: FTIR and SRCD; pH ~5; Anisotropy: buffer not given in material (as Geinguenaud 2011); pH ~5 stated for DNA complex formation; microscopy: Hfq stock in 50 mM Tris-HCl pH 7.5, 50 mM NH4Cl, 10% glycerol, 1 mM EDTA, exchanged to TE (10 mM Tris-HCl pH 8, 1 mM EDTA); TEM: 10 mM Tris-HCl, 1 mM EDTA, room temperature, 10 min.

Hfq, sequence (P0A6X3 whole entry): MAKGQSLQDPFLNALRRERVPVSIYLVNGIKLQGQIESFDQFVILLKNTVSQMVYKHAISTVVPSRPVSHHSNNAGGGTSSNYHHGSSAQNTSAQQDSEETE

Consider AAAAAAAAAAAAAAAAAAAA (ssDNA) [dA20], for which the dissociation constant Kd in the data set with Hfq was determined as 183 ± 8 nM.

B1: dA59 (ssDNA)
DNA: AAAAAAAAAAAAAAAAAAAAAAAAAAAAAAAAAAAAAAAAAAAAAAAAAAAAAAAAAAA
In the case of B1, the Kd with Hfq stood at 166 ± 16 nM.

B2: dA59 (spectroscopy) (ssDNA)
DNA: AAAAAAAAAAAAAAAAAAAAAAAAAAAAAAAAAAAAAAAAAAAAAAAAAAAAAAAAAAA
For the molecule B2, in the data set with Hfq-CTR peptide, the binding result is recorded as “binds”.
With AAAAAAA (ssDNA) [dA7], the Kd with Hfq was 3500 ± 200 nM.

What is called Kd is the free concentration of one partner at which half of the binding sites on the other are occupied at equilibrium, for simple one-to-one binding.
